The assay concerns the target E. acervulina merozoite antigen (whole merozoites coated on the plate, or sonicated merozoites).

The values below come from patent publication US5780289.

As to “peripheral blood leucocytes of chickens immunised with purified Eam100 (cells without a defined receptor)”, the 3H-thymidine incorporation in Dcpm was found to be 1190 Dcpm. With “peripheral blood leucocytes of control chickens (cells without a defined receptor)” the figure was 14 Dcpm.

“peripheral blood leucocytes of chickens immunised with purified Eam45 (cells without a defined receptor)” displayed a 3H-thymidine incorporation in Dcpm of 716 Dcpm. With “peripheral blood leucocytes of chickens immunised with purified Eam20 (cells without a defined receptor)” the figure was 922 Dcpm; with “peripheral blood leucocytes of chickens immunised with purified Eam200 (cells without a defined receptor)”, 692 Dcpm.
